Results from patent US20080267944.

Test system: prothrombin

Substance: recombinant prothrombin activating protease (rLopap)
- prothrombin activation (thrombin formation followed with S-2238 chromogenic substrate): The native Lopap and the rLopap are able to activate prothrombin using preferentially the S-2238 substrate
- prothrombin activation, compared with native Lopap: in same concentrations, rLopap is less efficient
- prothrombin hydrolysis (SDS-PAGE of fragments; prothrombin 10 uM, rLOPAP 2 uM): Under non-reduced conditions bands of 72 kDa (prothrombin), of 52 kDa probably corresponding to the prothrombin F1.2, one of 36 kDa corresponding to the thrombin or to the prethrombin 2, and one of 24 kDa corresponding to the fragment 1 (F1) of the prothrombin could be observed
- prothrombin hydrolysis in presence and absence of Factor Va (SDS-PAGE): The same hydrolysis standards were obtained in presence and in absence of the Factor Va
